Measured values published in the supplement of paper PMC10724198.
± gives the standard deviation of the averaged measurements.
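Note: PSI is a weighted mean of sequencing reads over stability bins, variants kept only with over 10 reads, mCherry proximal and sfGFP distal, peptide attached via GGGS linker.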

The sequences below were run on Saccharomyces cerevisiae (assay: protein stability index of tFT-peptide fusion (C-terminal peptide) (PSI (0-1 scale)); higher = more stable (slower turnover)). Conditions: genetic background: wild type; temperature: 30 C.
For PSFVRTVPSPCP, the protein stability index was 0.658 ± 0.011. PSGCIPCNVGVS was tested, and the protein stability index was 0.705 ± 0.099. PSGSFPPCLGSP was tested, and the protein stability index was 0.653 ± 0.018. With PSGVKILFELKP the protein stability index was 0.645 ± 0.03. PSHPSPPPPAPP was tested, and the protein stability index was 0.692 ± 0.041. Sequence PSHRPWPPTRPP has a protein stability index of 0.677 ± 0.033. PSIKRSVKPFSP was tested, and the protein stability index was 0.857 ± 0.2. For PSIPSNPPTPPR, the protein stability index was 0.72 ± 0.033. In the case of PSLARWLTLGYM, the protein stability index is reported as 0.63 ± 0.013. With PSLNPRVSFVNL the protein stability index was 0.685 ± 0.0073. For PSLSPSLLRFNL, the protein stability index was 0.66 ± 0.015. For PSLSPSPRITSS, the protein stability index was 0.65 ± 0.077. In the case of PSMLFPRTLSPL, the protein stability index is reported as 0.6963 ± 0.0056. Work on PSPALPANQSFY yielded a protein stability index of 0.665 ± 0.019. PSPLLPPPLPPS showed a protein stability index of 0.678 ± 0.046. PSPLPPPPLPLS gave a protein stability index of 0.5739 ± 0.0048. In the case of PSPLPPVPPPPP, the protein stability index is reported as 0.639 ± 0.095. For PSPPAPPPSPLP, the protein stability index was 0.823 ± 0.15. Sequence PSPPPAPAPLLA has a protein stability index of 0.667 ± 0.032. In the case of PSPPPPPPPGSF, the protein stability index is reported as 0.677 ± 0.06. PSPPPPPSPSPP was tested, and the protein stability index was 0.626 ± 0.014. Sequence PSPPPSQSLPPP has a protein stability index of 0.717 ± 0.043. For PSPPPVSPVVPP, the protein stability index was 0.672 ± 0.036. With PSPPTSLPPTDA the protein stability index was 0.706 ± 0.029. Sequence PSPPTYPSFPSR has a protein stability index of 0.724 ± 0.041. PSPSLYPPASPP gave a protein stability index of 0.654 ± 0.046. Sequence PSPSVVPASSPP has a protein stability index of 0.669 ± 0.03. With PSPVPPSPPPSP the protein stability index was 0.512 ± 0.083. PSPVPSLPPFLP showed a protein stability index of 0.745 ± 0.13. Sequence PSRLPSPPPPPP has a protein stability index of 0.721 ± 0.073. In the case of PSRLSKTLLMGW, the protein stability index is reported as 0.676 ± 0.07. Sequence PSRPPPTPPLPP has a protein stability index of 0.629 ± 0.14. PSRSFLPTHCSL showed a protein stability index of 0.666 ± 0.017. For PSRYHLFLPSPA, the protein stability index was 0.73 ± 0.055. PSSFIRFLLCCF was tested, and the protein stability index was 0.644 ± 0.04. Work on PSSPPPPPLSPL yielded a protein stability index of 0.664 ± 0.017. Work on PSSPPTPLPPRS yielded a protein stability index of 0.663 ± 0.077. PSSTSPPPPPPP showed a protein stability index of 0.695 ± 0.025. Work on PSSWPPPPPPLP yielded a protein stability index of 0.614 ± 0.022. Work on PSSYFFPPHFLL yielded a protein stability index of 0.665 ± 0.1. In the case of PSTLKQVMNLGA, the protein stability index is reported as 0.666 ± 0.18. For PSTPPPPPGDFL, the protein stability index was 0.709 ± 0.037. In the case of PSTSHLALSWSV, the protein stability index is reported as 0.703 ± 0.065. Work on PSVAPFPLAPFS yielded a protein stability index of 0.71 ± 0.066. For PSVLGCIVPLIW, the protein stability index was 0.7197 ± 0.0043. Work on PSVLLAPTRRHP yielded a protein stability index of 0.678 ± 0.0016. In the case of PSVPLAGFVCRA, the protein stability index is reported as 0.587 ± 0.11. In the case of PSVPPRVCSFSI, the protein stability index is reported as 0.735 ± 0.08. Work on PSWEPLPLPAVL yielded a protein stability index of 0.707 ± 0.018. PSYKRGGSYPMQ gave a protein stability index of 0.692 ± 0.049. PSYLALPLSTSP gave a protein stability index of 0.684 ± 0.024. PTAPPRLRLSFC was tested, and the protein stability index was 0.667 ± 0.0089. PTASDPLPPPPN showed a protein stability index of 0.867 ± 0.13. Work on PTATMLFLTRTG yielded a protein stability index of 0.702 ± 0.043. PTHCTPRRRTRR showed a protein stability index of 0.676 ± 0.014. For PTHSRQPPYLSL, the protein stability index was 0.684 ± 0.027. In the case of PTIGTLPTVGDD, the protein stability index is reported as 0.656 ± 0.02. With PTIPLLPPPLPP the protein stability index was 0.622 ± 0.022. PTKRHRKAPGTN gave a protein stability index of 0.629 ± 0.069. Work on PTLTTQPNVPLN yielded a protein stability index of 0.723 ± 0.038. PTPPRRPLSFSP showed a protein stability index of 0.653 ± 0.057. PTQSDSTSTSRI showed a protein stability index of 0.69 ± 0.016. With PTRPPAPGPGRH the protein stability index was 0.744 ± 0.045. For PTRPPSLPRIPP, the protein stability index was 0.669 ± 0.028. PTRQTIWPPPAS showed a protein stability index of 0.748 ± 0.026. PTSACAPACPLL gave a protein stability index of 0.706 ± 0.032. Work on PTSLPLPPPSLS yielded a protein stability index of 0.7333 ± 0.0056. Work on PTSPPPPPPPPP yielded a protein stability index of 0.657 ± 0.084. Sequence PVAQSCHAPSPP has a protein stability index of 0.62303 ± 0.00018. In the case of PVFGRPFCSSSV, the protein stability index is reported as 0.682 ± 0.061. Work on PVFLQRVIPRSR yielded a protein stability index of 0.678 ± 0.096. PVHHLSLPSPLL gave a protein stability index of 0.732 ± 0.037. PVLPPPAPSPPP was tested, and the protein stability index was 0.678 ± 0.042. Work on PVLVLPHARSPF yielded a protein stability index of 0.695 ± 0.021. PVPASSSRSLLL gave a protein stability index of 0.671 ± 0.0095. For PVPPQHPPLKSI, the protein stability index was 0.705 ± 0.059. With PVPRRPLLPLPP the protein stability index was 0.663 ± 0.02. In the case of PVPSPLLPSFSL, the protein stability index is reported as 0.715 ± 0.064. PVSPALTPFPPS was tested, and the protein stability index was 0.705 ± 0.043. PVSSPSSPLPPL was tested, and the protein stability index was 0.678 ± 0.054. In the case of PVVKVCRPVFLD, the protein stability index is reported as 0.829 ± 0.13. In the case of PWFIGGSLGESG, the protein stability index is reported as 0.699 ± 0.027. For PWQSSPFTPALT, the protein stability index was 0.649 ± 0.057. With PWTRMHRETRYL the protein stability index was 0.683 ± 0.02. For PWVSGGMGKGDV, the protein stability index was 0.686 ± 0.0075. Sequence PYAFPPPPPPPP has a protein stability index of 0.64 ± 0.032. With PYFLLLVSIPPS the protein stability index was 0.525 ± 0.0056. In the case of PYHTITPKPLQR, the protein stability index is reported as 0.677 ± 0.049. With PYLLGPIPGIPR the protein stability index was 0.666 ± 0.059. PYPPPPRLLVSP showed a protein stability index of 0.7359 ± 0.0056. PYQPSPFRLAAG showed a protein stability index of 0.67 ± 0.1. For PYRPPPPLALSL, the protein stability index was 0.693 ± 0.015. PYRWQTRPDAVD showed a protein stability index of 0.666 ± 0.014. PYSCPPGCRSVL was tested, and the protein stability index was 0.6894 ± 0.0043. With PYSGSPRALPRP the protein stability index was 0.716 ± 0.069. PYTHFFSPPFWP was tested, and the protein stability index was 0.766 ± 0.04. PYTPLLLSTLAP was tested, and the protein stability index was 0.6899 ± 0.0016. With PYWYPRASRGAL the protein stability index was 0.699 ± 0.043. Work on QAKNNKKQKGWQ yielded a protein stability index of 0.646 ± 0.046. With QARKGPISSCRP the protein stability index was 0.664 ± 0.067. QARSLVRSLCYP showed a protein stability index of 0.677 ± 0.0082. For QAVVGSYRELGE, the protein stability index was 0.709 ± 0.038. QCIYVCKKTPTI was tested, and the protein stability index was 0.679 ± 0.067. QCNTFNKEKPER showed a protein stability index of 0.694 ± 0.021. QCQVKGIFKKVF showed a protein stability index of 0.687 ± 0.0076. QDDTASMVVMIR showed a protein stability index of 0.697 ± 0.034. QDLDTALLLHAF showed a protein stability index of 0.657 ± 0.018. In the case of QDSDRSLTPKPL, the protein stability index is reported as 0.688 ± 0.028. For QEALLAPEYSVD, the protein stability index was 0.7 ± 0.0096. Sequence QEMMRGVVGGNW has a protein stability index of 0.715 ± 0.033. Sequence QEVKLAPEHRLR has a protein stability index of 0.675 ± 0.013. Sequence QFCYSNPVSRYG has a protein stability index of 0.6899 ± 0.004. For QFIFSRGGLPVL, the protein stability index was 0.7351 ± 0.0015. For QFIPIRSIIMRG, the protein stability index was 0.73 ± 0.038. For QFLWCFRPCCCS, the protein stability index was 0.584 ± 0.081. With QFVLLFRSSGLR the protein stability index was 0.7104 ± 0.0017. Sequence QGERHCCILVST has a protein stability index of 0.555 ± 0.025. QGGLCGVYGWSL was tested, and the protein stability index was 0.68 ± 0.042. QGGSHARDRRRL was tested, and the protein stability index was 0.678 ± 0.013. In the case of QHFSSPQPVPYS, the protein stability index is reported as 0.696 ± 0.013. With QIKARVRRDLTL the protein stability index was 0.692 ± 0.096. QKKIKNKRQHRT gave a protein stability index of 0.795 ± 0.11. For QKKKILNKQRTK, the protein stability index was 0.681 ± 0.033. With QKKKKNRKQKIK the protein stability index was 0.696 ± 0.017. For QKKKPEKKAKRA, the protein stability index was 0.721 ± 0.013. Sequence QKNMVKKVENTR has a protein stability index of 0.7637 ± 0.0067. For QKPHGDVSFQVM, the protein stability index was 0.662 ± 0.033. QKPKDYTEDKRD gave a protein stability index of 0.718 ± 0.11. In the case of QKRAREKAPTPD, the protein stability index is reported as 0.729 ± 0.012. Work on QKTYHATQTRRR yielded a protein stability index of 0.6839 ± 0.00099. In the case of QLASISPSPNPS, the protein stability index is reported as 0.692 ± 0.021. In the case of QLCRPRIFTNRG, the protein stability index is reported as 0.662 ± 0.034. Work on QLDRRKDSLLRH yielded a protein stability index of 0.746 ± 0.017. QLPPRLSRRLPP was tested, and the protein stability index was 0.741 ± 0.17. Sequence QLRRPPPPLPLP has a protein stability index of 0.714 ± 0.0072. With QLSSARTILRRP the protein stability index was 0.597 ± 0.0085. With QNHKSYQTQDHN the protein stability index was 0.616 ± 0.051. With QNLEDDLSIAGS the protein stability index was 0.703 ± 0.02. QNNRKEIKRNEI showed a protein stability index of 0.6662 ± 0.0039. In the case of QNPRTDEAVRSP, the protein stability index is reported as 0.619 ± 0.011. For QPPAKSRETKYR, the protein stability index was 0.741 ± 0.031. In the case of QPPPPRLPPRPP, the protein stability index is reported as 0.622 ± 0.0027. Work on QPRPSISGLSPT yielded a protein stability index of 0.642 ± 0.02. For QQKKCNTIKKNE, the protein stability index was 0.637 ± 0.0024. Sequence QQLWQTHEHQAR has a protein stability index of 0.674 ± 0.035. In the case of QQQSTKHSEERV, the protein stability index is reported as 0.691 ± 0.014. For QRGDDFHDTSPA, the protein stability index was 0.708 ± 0.0082. Work on QRGEGTSQGILT yielded a protein stability index of 0.807 ± 0.13. QSAFLFGFMSFW showed a protein stability index of 0.62 ± 0.025. QSFGSYYLTIAL showed a protein stability index of 0.67 ± 0.036. For QSHNDIRDGPPR, the protein stability index was 0.679 ± 0.021. Work on QSIESKKIKQKE yielded a protein stability index of 0.7109 ± 0.0048. With QSNPAERASSRL the protein stability index was 0.692 ± 0.022. In the case of QSQMEKGTIVWT, the protein stability index is reported as 0.705 ± 0.011. QSSWVGRGVRGG gave a protein stability index of 0.647 ± 0.014. QTLKKRRNRSRG gave a protein stability index of 0.684 ± 0.041. Work on QTLQHLQTPSIS yielded a protein stability index of 0.761 ± 0.092. QTYEGSKGHLRD gave a protein stability index of 0.6625 ± 0.0044. QTYQQSVKNRDD showed a protein stability index of 0.666 ± 0.061. Work on QVDVLVCKLEVP yielded a protein stability index of 0.672 ± 0.11.
